Source: patent US20020076800

Target: T1, Human α2Macroglobulin, P01023
T1 chain: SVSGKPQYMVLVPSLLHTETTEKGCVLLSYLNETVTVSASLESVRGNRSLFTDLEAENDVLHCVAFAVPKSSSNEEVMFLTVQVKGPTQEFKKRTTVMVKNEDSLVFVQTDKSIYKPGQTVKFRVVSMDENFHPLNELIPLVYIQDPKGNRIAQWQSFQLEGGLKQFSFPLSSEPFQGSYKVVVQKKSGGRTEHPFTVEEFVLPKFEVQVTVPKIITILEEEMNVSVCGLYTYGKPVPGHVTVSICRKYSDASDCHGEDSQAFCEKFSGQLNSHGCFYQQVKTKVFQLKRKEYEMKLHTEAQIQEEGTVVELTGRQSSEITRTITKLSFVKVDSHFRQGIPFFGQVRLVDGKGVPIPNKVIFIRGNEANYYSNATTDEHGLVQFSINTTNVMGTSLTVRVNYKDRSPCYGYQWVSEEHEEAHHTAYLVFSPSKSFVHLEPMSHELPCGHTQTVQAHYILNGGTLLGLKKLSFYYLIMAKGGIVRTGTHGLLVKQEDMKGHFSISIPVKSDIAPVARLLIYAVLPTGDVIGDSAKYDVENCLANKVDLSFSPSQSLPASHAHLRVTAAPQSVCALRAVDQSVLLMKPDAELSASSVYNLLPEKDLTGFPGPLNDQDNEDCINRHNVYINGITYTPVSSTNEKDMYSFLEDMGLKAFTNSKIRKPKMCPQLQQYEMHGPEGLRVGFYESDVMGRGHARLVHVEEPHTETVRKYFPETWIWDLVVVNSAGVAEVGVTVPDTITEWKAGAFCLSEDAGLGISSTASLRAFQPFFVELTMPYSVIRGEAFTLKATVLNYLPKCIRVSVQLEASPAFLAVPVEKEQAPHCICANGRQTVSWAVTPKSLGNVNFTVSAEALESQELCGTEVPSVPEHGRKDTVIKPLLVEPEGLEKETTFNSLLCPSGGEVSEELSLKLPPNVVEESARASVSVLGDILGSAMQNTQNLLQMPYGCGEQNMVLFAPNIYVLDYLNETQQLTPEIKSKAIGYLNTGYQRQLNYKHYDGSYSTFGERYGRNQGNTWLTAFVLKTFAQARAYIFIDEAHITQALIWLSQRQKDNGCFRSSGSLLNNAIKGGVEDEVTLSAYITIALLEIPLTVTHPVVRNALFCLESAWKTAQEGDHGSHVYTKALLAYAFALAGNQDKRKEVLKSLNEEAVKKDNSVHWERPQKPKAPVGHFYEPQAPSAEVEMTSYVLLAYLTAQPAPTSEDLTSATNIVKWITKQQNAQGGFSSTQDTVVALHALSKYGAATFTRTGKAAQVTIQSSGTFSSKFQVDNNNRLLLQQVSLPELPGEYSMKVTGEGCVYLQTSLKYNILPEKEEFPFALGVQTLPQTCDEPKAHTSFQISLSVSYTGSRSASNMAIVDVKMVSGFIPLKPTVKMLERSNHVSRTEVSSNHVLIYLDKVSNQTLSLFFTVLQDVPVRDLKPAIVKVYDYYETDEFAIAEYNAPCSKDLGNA

B1: HipHum 35 construct no.2 (recombinant HH35 protein, catalytic domain only, with a six histidine tag at the amino terminal) (protein)
chain: HHHHHHRRSPRAPLSLSRRGWQPRGYPDGGAAQAFSKRTLSWRLLGEALSSQLSVADQRRIVALAFRMWSEVTPLDFREDLAAPGAAVDIKLGFGRGRHLGCPRAFDGSGQEFAHAWRLGDIHFDDDEHFTPPTSDTGISLLKVAVHEIGHVLGLPHTYRTGSIMQPNYIPQEPAFELDWSDRKAIQKLY
With B1 the “α2Macroglobulin trapping (protein gel), evidence for protease activity” value was “αmacroglobulin capture by Hiphum 35, demonstrating that Hiphum 35 has protease activity”.
